In the Human Domainome abundance scans (Beltran et al. 2025):

B1: Protein C-ets-1, residues 55 to 135; numbered along this chain, P14921 (parent)
chain: GFTKEQQRLGIPKDPRQWTETHVRDWVMWAVNEFSLKGVDFQKFCMNGAALCALGKDCFLELAPDFVGDILWEHLEILQKE

Variants of: B1
Test: abundance fitness (aPCA) (normalised: wild type 0, dead -1); higher = more abundant; growth selection in yeast, the domain comes from the species named
Conditions: Homo sapiens

Abundance fitness of substitutions, site by site:
W18: K -1.01, R -0.733, V -0.891, N -0.965, T -0.999, L -0.954, M -1.08, Q -0.899
F34: S -0.52, C -0.428, K -0.175, L -0.276, M -0.362, T -0.743, I -0.9, D -0.623, R -0.3, Y -0.023, A -0.493, W -0.039, N -0.244, Q -0.358, H -0.084, P -0.886, E -0.425
V23: K -0.904, T -0.126, A -0.631, Y -0.955, I -0.438, M -0.916, H -0.838, W -0.822, R -0.686, P -0.985, S -0.48, E -1.03, L -0.728, C -0.559, N -0.858, F -0.857, Q -0.909, G -0.967, D -0.906
R24: V -0.059, F -0.287, M 0.023, W -0.3, C -0.111, K 0.096, H 0.051, N -0.062, T -0.087, E -0.275, D -0.827, A -0.087, L -0.05, I -0.133, Q -0.039, Y -0.152, P -1.03, S -0.152
L36: V -0.276, C -0.332, T -0.697, W -0.29, I -0.215, K -0.58, D -0.763, F -0.139, Y -0.539, P -0.725, S -0.751, N -0.691, Q -0.624, M -0.343, G -0.661, R -1.05, E -1, A -0.52
T21: G -0.008, V -0.041, W -0.196, D 0.081, M -0.058, C -0.089, H -0.067, Q 0.002, E -0.073, S -0.016, K -0.022, R 0.039, F -0.11, L -0.064, I -0.143, A 0.002, Y 0.043
W26: G -0.895, E -0.84, M -0.898, V -0.863, Y -0.281, L -0.966, T -0.954, N -0.865, F -0.213, I -1.1, P -0.861, K -0.727, D -0.668, C -0.662, S -0.968, A -0.845, R -0.934, H -0.822
N32: I -0.193, L -0.179, Y -0.327, E -0.042, V -0.111, M -0.119, G -0.018, S -0.008, C -0.132, D 0.046, F -0.399, K 0.028, R 0.019, P -0.49, Q 0.003, W -0.332, T -0.042, A -0.001, H 0.032
V31: G -0.427, E -0.19, Q -0.126, T 0.006, K -0.18, D -0.491, Y -0.44, R -0.274, A 0.018, C -0.013, I -0.053, L -0.326, N -0.401, M -0.069, F -0.645, H -0.495, S -0.076
M28: A -0.026, L -0.022, F -0.088, R -0.004, I 0.006, K -0.016, W -0.11, Q 0.014, C -0.006, P -0.88, E 0.005, V 0.009, N 0.054, Y -0.153, S 0.017, G -0.055, T 0.07
D25: K -0.005, F -0.124, C -0.01, E 0.06, W -0.05, S -0.008, I -0.033, R -0.023, A 0.014, M -0.061, H 0.041, P -0.973, T -0.038, L 0.016, V -0.061, Q -0.003, Y -0.027, G -0.038
K37: G -0.054, D -0.022, F -0.199, E 0.044, M -0.146, R -0.076, N -0.033, H -0.048, A -0.046, P -0.043, I -0.064, Q 0.005, S -0.033, T -0.027, C -0.128, L -0.161
W29: E -0.561, C -0.364, D -0.685, G -0.492, S -0.395, Q -0.59, N -0.586, T -0.515, I -0.803, R -0.489, K -0.659, V -0.767, A -0.415
E33: H -0.006, P -0.796, W -0.179, R -0.042, N -0.078, C -0.132, F -0.134, Q -0.099, G -0.539, A -0.071, S -0.117, Y -0.099, K -0.001, I -0.498, M -0.316, L -0.503, T -0.063
T19: C -0.221, W -0.945, S -0.052, Q -0.228, I -0.705, M -0.345, V -0.635, L -0.376, Y -0.642, F -0.858, N -0.16, E -0.155, H -0.153, P -0.936, R -0.205
V27: I -0.003, G -0.739, N -0.796, F -0.214, P -0.86, C -0.18, L -0.013, R -0.876, K -0.983, H -0.931, W -0.625, E -1, S -0.841, D -0.887, A -0.2, Y -0.992, M -0.045
H22: T -0.528, D -0.047, N 0.023, F -0.965, G -0.565, K -1.07, A -0.33, Y -0.625, M -0.18, L -0.687, R -0.818, Q -0.063, W -0.904, P -0.85, V -0.673, S -0.472, C -0.801, I -0.881, E -0.062
E20: A -0.035, Q -0.021, T -0.036, G -0.264, L -0.209, K -0.036, C -0.105, N -0.114, D -0.107, Y -0.224, M -0.078, V -0.019, P -0.059, I -0.128, W -0.463, F -0.396
S35: P -0.625, I -0.539, G 0.012, Y -0.288, A -0.069, N -0.178, F -0.413, Q 0.062, C -0.072, D 0.017, L -0.364, V -0.381, M -0.142, W -0.559, T -0.034, R -0.029, K -0.012
A30: C -0.02, E -0.032, F -0.187, W -0.195, G -0.197, D -0.671, S -0.062, I -0.196, R -0.643, H -0.107, K -0.366, Q -0.183, Y -0.188, P -0.8, L -0.187, M -0.008, T 0.003, N -0.108
